In publication PMC12098294 one finds decrease of MICA binding against the NKG2DL single-targeting CAR data, which are given here for one molecule.

Experiment [1] concerns the target CD19/NKG2DL tandem CAR with a short hinge (12 amino acids) derived from IgG4 (UniProt P26718). Nature of the experiment: flow cytometry on cells; CAR-transduced primary T-cells incubated with rhMICA-Avi (detected with Alexa Fluor 647 streptavidin) and/or rhCD19-Fc (detected with anti-human IgG-Fc antibody); MFI read in a subpopulation expressing the CD34 marker at similar level; one ligand alone or both together. Background: In flow cytometry, cells or beads pass a laser one at a time.

Experiment [2] addresses CD19/NKG2DL tandem CAR with a short hinge (12 amino acids) derived from CD8α (UniProt P26718). The experiment is described as above.

B1: recombinant human Biotinylated Human MICA Protein, His,Avitag (ligand)
chain: EPHSLRYNLTVLSWDGSVQSGFLTEVHLDGQPFLRCDRQKCRAKPQGQWAEDVLGNKTWDRETRDLTGNGKDLRMTLAHIKDQKEGLHSLQEIRVCEIHEDNSTRSSQHFYYDGELFLSQNLETKEWTMPQSSRAQTLAMNVRNFLKEDAMKTKTHYHAMHADCLQELRRYLKSGVVLRRTVPPMVNVTRSEASEGNITVTCRASGFYPWNITLSWRQDGVSLSHDTQQWGDVLPDGNGTYQTWVATRICQGEEQRFTCYMEHSGNHSTHPVPSGKVLVLQSHW
modifications: biotin (biotinylated protein)
Turning to B1, the decrease of MICA binding against the NKG2DL single-targeting CAR in experiment [1] and in experiment [2] was 30% each time.
